Source: article PMC8242032, “Non-canonical function of DGCR8 in DNA double-strand break repair signaling and tumor radioresistance” (Nature Communications, 2021)

Biological target: T1, MBP-DGCR8 (human, UniProt Q8WYQ5 1-773)
T1 construct: DGCR8, human, full-length, in an MBP-tagged destination vector; also called purified DGCR8; source: bacterially purified (eluted with maltose)
T1 sequence (looked up): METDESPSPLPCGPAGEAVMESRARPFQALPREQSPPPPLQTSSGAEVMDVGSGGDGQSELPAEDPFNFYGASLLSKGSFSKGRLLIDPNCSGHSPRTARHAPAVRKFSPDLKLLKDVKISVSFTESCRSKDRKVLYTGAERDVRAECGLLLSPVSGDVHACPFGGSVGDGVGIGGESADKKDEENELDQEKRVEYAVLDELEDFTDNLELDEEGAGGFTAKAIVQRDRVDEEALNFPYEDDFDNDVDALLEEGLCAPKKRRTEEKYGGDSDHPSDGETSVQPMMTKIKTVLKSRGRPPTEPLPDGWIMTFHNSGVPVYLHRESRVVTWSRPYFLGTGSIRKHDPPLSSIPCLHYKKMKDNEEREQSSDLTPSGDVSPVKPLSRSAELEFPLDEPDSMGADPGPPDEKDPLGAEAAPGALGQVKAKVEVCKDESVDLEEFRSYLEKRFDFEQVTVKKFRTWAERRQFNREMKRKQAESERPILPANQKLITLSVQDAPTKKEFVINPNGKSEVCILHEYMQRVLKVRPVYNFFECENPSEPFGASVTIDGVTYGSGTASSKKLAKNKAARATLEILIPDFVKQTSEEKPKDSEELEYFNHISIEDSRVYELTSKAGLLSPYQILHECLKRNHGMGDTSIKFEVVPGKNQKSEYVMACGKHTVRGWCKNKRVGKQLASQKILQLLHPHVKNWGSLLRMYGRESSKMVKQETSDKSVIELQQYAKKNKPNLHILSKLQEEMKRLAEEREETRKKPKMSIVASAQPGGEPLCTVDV
Assay: pull-down; SFB-USP51 (or SFB-GFP) purified from transfected HEK293T cells, retained on S-protein beads and incubated with purified MBP-DGCR8, 4 °C overnight; washed with NETN buffer
Conditions: both partners purified

binding result: binds
B1: SFB-USP51 (enzyme, human, UniProt Q70EK9 1-711, looked up)
chain: MAQVRETSLPSGSGVRWISGGGGGASPEEAVEKAGKMEEAAAGATKASSRREAEEMKLEPLQEREPAPEENLTWSSSGGDEKVLPSIPLRCHSSSSPVCPRRKPRPRPQPRARSRSQPGLSAPPPPPARPPPPPPPPPPPAPRPRAWRGSRRRSRPGSRPQTRRSCSGDLDGSGDPGGLGDWLLEVEFGQGPTGCSHVESFKVGKNWQKNLRLIYQRFVWSGTPETRKRKAKSCICHVCSTHMNRLHSCLSCVFFGCFTEKHIHKHAETKQHHLAVDLYHGVIYCFMCKDYVYDKDIEQIAKETKEKILRLLTSTSTDVSHQQFMTSGFEDKQSTCETKEQEPKLVKPKKKRRKKSVYTVGLRGLINLGNTCFMNCIVQALTHIPLLKDFFLSDKHKCIMTSPSLCLVCEMSSLFHAMYSGSRTPHIPYKLLHLIWIHAEHLAGYRQQDAHEFLIAILDVLHRHSKDDSGGQEANNPNCCNCIIDQIFTGGLQSDVTCQACHSVSTTIDPCWDISLDLPGSCATFDSQNPERADSTVSRDDHIPGIPSLTDCLQWFTRPEHLGSSAKIKCNSCQSYQESTKQLTMKKLPIVACFHLKRFEHVGKQRRKINTFISFPLELDMTPFLASTKESRMKEGQPPTDCVPNENKYSLFAVINHHGTLESGHYTSFIRQQKDQWFSCDDAIITKATIEDLLYSEGYLLFYHKQGLEKD
notes: USP51, human DUB ORF in the pBabe-SFB vector; also called SFB-tagged USP51; source: HEK293T, transfected, in lysate; purified from transfected HEK293T cells
